Results: publication PMC5095074 (2016)

B1: GST-E-cadherin-cytoplasmic domain (cd) [human] / Purified β-catenin [not stated] (parent complex)
chain 1: RAVVKEPLLPPEDDTRDNVYYYDEEGGGEEDQDFDLSQLHRGLDARPEVTRNDVAPTLMSVPRYLPRPANPDEIGNFIDENLKAADTDPTAPPYDSLLVFDYEGSGSEAASLSSLNSSESDKDQDYDYLNEWGNRFKKLADMYGGGEDD
chain 2: MATQADLMELDMAMEPDRKAAVSHWQQQSYLDSGIHSGATTTAPSLSGKGNPEEEDVDTSQVLYEWEQGFSQSFTQEQVADIDGQYAMTRAQRVRAAMFPETLDEGMQIPSTQFDAAHPTNVQRLAEPSQMLKHAVVNLINYQDDAELATRAIPELTKLLNDEDQVVVNKAAVMVHQLSKKEASRHAIMRSPQMVSAIVRTMQNTNDVETARCTAGTLHNLSHHREGLLAIFKSGGIPALVKMLGSPVDSVLFYAITTLHNLLLHQEGAKMAVRLAGGLQKMVALLNKTNVKFLAITTDCLQILAYGNQESKLIILASGGPQALVNIMRTYTYEKLLWTTSRVLKVLSVCSSNKPAIVEAGGMQALGLHLTDPSQRLVQNCLWTLRNLSDAATKQEGMEGLLGTLVQLLGSDDINVVTCAAGILSNLTCNNYKNKMMVCQVGGIEALVRTVLRAGDREDITEPAICALRHLTSRHQEAEMAQNAVRLHYGLPVVVKLLHPPSHWPLIKATVGLIRNLALCPANHAPLREQGAIPRLVQLLVRAHQDTQRRTSMGGTQQQFVEGVRMEEIVEGCTGALHILARDVHNRIVIRGLNTIPLFVQLLYSPIENIQRVAAGVLCELAQDKEAAEAIEAEGATAPLTELLHSRNEGVATYAAAVLFRMSEDKPQDYKKRLSVELTSSLFRTEPMAWNETADLGLDIGAQGEPLGYRQDDPSYRSFHSGGYGQDALGMDPMMEHEMGGHHPGADYPVDGLPDLGHAQDLMDGLPPGDSNQLAWFDTDL

Variants of: B1
Experiment: GST pull-down, immunoblot anti-β-catenin, quantified; purified proteins; mean ± SD of three experiments; parent: 1; read off a plot

Row | Variant | ratio to parent
1 | chain 1 T57E | ~0.39
2 | chain 1 T57A | ~1.1
